Assay results: the supplement of paper PMC7125110
± gives the standard error. Fewer inactive variants are shown than the library holds.

B1: glmS ribozyme (parent)
chain: AUAAAAGCGCCAGAACUACAGAAAUGUAGUUGACGAGGAGGAGGUUUAUCGAAUUUUCGGCGGAUGCCUCCAAA

Variants of: B1
Assay: self-cleavage kobs at 2500 uM GlcN6P; higher = faster cleavage; RNA array
Settings: with glucosamine-6-phosphate
How it was run: (§1)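 Weighted Michaelis–Menten fits across concentrations supplied kcat and KM, based on kobs from one- or two-exponential decay fits to normalised per-tile medians. The data came from barcoded ribozyme variants transcribed in situ by E. coli RNA polymerase on sequenced MiSeq chips and tracked at 37 °C by a hybridised Cy3 probe. Glucosamine-6-phosphate (40 μM to 10 mM) in HEPES/KCl/Mg(OAc)2 buffer was flowed in.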

| Variant | self-cleavage kobs at 2500 uM GlcN6P [s⁻¹] |
| --- | --- |
| C11G U31A A42C | < 1e-05 |
| C10A C11U C70A | 0.000126 ± 4.3e-05 |
| A12C G37U G38U | < 1e-05 |
| G9C C16A C34A G44C A64G | < 1e-05 |
| G9U C10G C16U | < 1e-05 |
| C11G A14G G43U G60C | < 1e-05 |
| C10A G60C G63C C67A C68G C70G C71U | 4.85e-05 ± 2.2e-05 |
| C8U G9U G13A G37A G41A | < 1e-05 |
| C11U U31C G41U A64G C70A | 0.0011 ± 0.0003 |
| C8U A12U A48U G62C U65A | < 1e-05 |
| A12G G29U U47G | 6.74e-05 ± 1.5e-05 |
| G9A G35C A64C C71U | < 1e-05 |
| C8G A33U U56G G59U | < 1e-05 |
| G9C G37U C58U G62U A64U C70G | < 1e-05 |
| C11U A33U G59A | 0.000169 ± 6.1e-05 |
| C10U G29U A39G U57C C71A | < 1e-05 |
| C11G C50G C58A C61A | 0.000322 ± 0.00011 |
| A12U C16U G43C G62C C70U | < 1e-05 |
| C10G G44U C71A | < 1e-05 |
| A12G A14G G32U A33U G51C | < 1e-05 |
| A12G A36C C70U | < 1e-05 |
| C8U C10U G13U G29C C58U C61A C67A | 0.000532 ± 0.00015 |
| A12G A33G G41C G66A | < 1e-05 |
| C8G G9U C16A A53C | < 1e-05 |
| G9A A15G G26U | < 1e-05 |
| G9U A15C C68U | < 1e-05 |
| C11U A14C A39U U56C | 7.9e-05 ± 2.4e-05 |

| Variant | self-cleavage kobs at 2500 uM GlcN6P [s⁻¹] |
| --- | --- |
| G9C A42C A52C G66C | < 1e-05 |
| C10A C11G G40U C50G A52U | < 1e-05 |
| C10G A33G G51U | < 1e-05 |
| C8U G9C C11G A14C U45G C50G C71G | < 1e-05 |
| A12U A39U A48U | 0.000147 ± 2.7e-05 |
| C8A G37A G41U A48U C50G U55A | < 1e-05 |
| G13A G35A G44A | < 1e-05 |
| C8G G29U A36C A48G C70U | < 1e-05 |
| A12U C16G U30C | 0.000813 ± 0.00031 |
| C11U G40A U46A G59C | < 1e-05 |
| C10G U47G G51A | < 1e-05 |
| C8A G32U G59A | < 1e-05 |
| C10A U47C G62U | < 1e-05 |
| A12C G29A U45G U46C | 0.000151 ± 5.3e-05 |
| C10U A48C C58U | < 1e-05 |
| G9C A15C G44A G60U C61G | < 1e-05 |
| A12U G37A C70G | 0.00013 ± 3.4e-05 |
| G9U G29U U31A U46A | < 1e-05 |
| G9C G13C C34A G62C A64G | < 1e-05 |
| C11U A14G U49C | < 1e-05 |
| C10G A14U G29C U49A A52G C67G | 7.89e-05 ± 2.3e-05 |
| C8U U57G C71G | < 1e-05 |
| G9A C16G U69A | < 1e-05 |
| A12G A14C A15C | 6.38e-05 ± 2.6e-05 |
| C10G G41A C58G | < 1e-05 |
| C11A C50U C61U C67G | 0.000136 ± 5.6e-05 |
| C8A G40C U47A A64U | < 1e-05 |

| Variant | self-cleavage kobs at 2500 uM GlcN6P [s⁻¹] |
| --- | --- |
| A12G G38U C67G C68A | 9.28e-05 ± 2.6e-05 |
| C8A G40C C67A | < 1e-05 |
| C10U G13A A33U | < 1e-05 |
| C10A C11A G51U A52U | < 1e-05 |
| C11U C34A G44A | < 1e-05 |
| C10U G29U U57C | < 1e-05 |
| G9A U54G G62A | < 1e-05 |
| A12G G43C U45C C61G | < 1e-05 |
| C10G G37C U49G C68G U69G | 9.24e-05 ± 4.5e-05 |
| A12U A48U G51C G60U | < 1e-05 |
| A12C A33G C34U C50A A64U C70G | 0.00011 ± 4.2e-05 |
| C10G G13C A42U A52C | < 1e-05 |
| C11U U54A C70G | 9.38e-05 ± 2.4e-05 |
| G9U A52U C58G | < 1e-05 |
| C10U C11U A15C C34A | < 1e-05 |
| C11A A14C A42C U55C A64G | < 1e-05 |
| C11A G21U | 9.85e-05 ± 2.9e-05 |
| C10G G41C G51A C61G | < 1e-05 |
| C10G A14C A48C C50U | < 1e-05 |
| A12U A14U G66A | 0.000704 ± 0.00016 |
| C8U U46G C61U | < 1e-05 |
| C10G A36G A52U | < 1e-05 |
| G9C U49A G51A C70U C71A | < 1e-05 |
| C8A U46G C61A U65C | < 1e-05 |
| C10U G51U G60U | < 1e-05 |
| C8U A12U C34A | < 1e-05 |

Variants of: B1
Assay: self-cleavage kobs at 10000 uM GlcN6P; higher = faster cleavage; RNA array
Settings: with glucosamine-6-phosphate
How it was run: as §1

| Variant | self-cleavage kobs at 10000 uM GlcN6P [s⁻¹] |
| --- | --- |
| C11G U31A A42C | < 1e-05 |
| C11U A33U G59A | 0.000262 ± 5.4e-05 |
| G9U A15C C68U | < 1e-05 |
| C10G A33G G51U | < 1e-05 |
| C10A U47C G62U | < 1e-05 |
| A12U G37A C70G | 9.11e-05 ± 2.1e-05 |
| A12G G43C U45C C61G | < 1e-05 |
| C11A G21U | 0.000164 ± 3.4e-05 |
| C10U G51U G60U | < 1e-05 |
